Patent US20150231240A1, “ANTI-C16ORF54 ANTIBODIES AND METHODS OF USE THEREOF” (priority 2012, published 2015)

T1: huC16orf54 (cells expressing C16orf54) (Homo sapiens, UniProt Q6UWD8)
T1 construct: expressed in transfected cells; host or cells: murine sarcoma cell line, retrovirally transduced (inferred from b529 and b531; b587 says only 'cells expressing C16orf54')
T1 sequence (Q6UWD8 1-224): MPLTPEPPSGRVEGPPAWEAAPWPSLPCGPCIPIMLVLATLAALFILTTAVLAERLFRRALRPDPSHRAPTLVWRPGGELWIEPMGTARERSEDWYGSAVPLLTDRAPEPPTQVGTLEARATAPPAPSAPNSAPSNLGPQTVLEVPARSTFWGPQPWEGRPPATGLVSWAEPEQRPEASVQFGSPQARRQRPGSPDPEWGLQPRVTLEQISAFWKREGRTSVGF

T2: N-terminal 32 amino acids of huC16orf54 (Homo sapiens, UniProt Q6UWD8)
T2 sequence (Q6UWD8 1-32 limits assumed): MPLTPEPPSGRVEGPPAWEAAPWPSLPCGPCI

T3: human C16orf54 (Homo sapiens, UniProt Q6UWD8)
T3 construct: expressed in transfected cells; host or cells: murine sarcoma cells (D42M1-huC16orf54)
T3 sequence (Q6UWD8 1-224): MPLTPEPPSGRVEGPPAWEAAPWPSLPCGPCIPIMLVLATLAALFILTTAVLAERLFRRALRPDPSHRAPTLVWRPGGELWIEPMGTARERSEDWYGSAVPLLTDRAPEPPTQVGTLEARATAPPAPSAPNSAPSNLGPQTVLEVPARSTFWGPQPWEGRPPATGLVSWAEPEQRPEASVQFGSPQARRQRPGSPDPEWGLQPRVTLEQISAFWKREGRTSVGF

T4: human C16orf54 extracellular domain peptides (Homo sapiens, UniProt Q6UWD8)
T4 sequence (Q6UWD8 1-31): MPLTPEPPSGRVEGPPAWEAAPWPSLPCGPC

T5: extracellular domain of c16orf54 (amino acids 1-31) fused to human IgG1 Fc (Homo sapiens, UniProt Q6UWD8)
T5 construct: the extracellular domain of c16orf54 (amino acids 1-31) either N terminal or C-terminal to a human IgG1 Fc domain; made in house; host or cells: 293 T cells, transient; Protein A purification
T5 sequence (Q6UWD8 1-31 limits assumed): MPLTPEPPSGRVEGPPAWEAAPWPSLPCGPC

B1: R29-7-2A: murine anti-C16orf54 monoclonal antibody, IgG2b; VH SEQ ID NO: 4, VL SEQ ID NO: 6 (antibody, V domains shown)
VH: MLLGLKWVFFVVFYQGVPCEVQLVESGGGLIQPKGSLKLSCVASGFSFNTHAMNWVRQAPGKGLEWVARIRSKSNNYARYYADSVKDRFTISRDDSQSILYLQMNNLKTEDTAMYYCVKQGDGGFAYWGQGTLVTVSA
VL: MDSQAQVLMLLLLWVSGTCGDIVMSQSPSSLAVSVGEKVTMSCKSSQSLLYSSNQKNYLAWYQQRPGQSPKLLIYWASARESGVPDRFTGSGSGTDFTLTISSVKAEDLAVYYCQQYYSYPPTFGAGTKVELK
modifications: R29-7-2A heavy chain variable region; R29-7-2A light chain variable region
B2: R29-8-58C: murine anti-C16orf54 monoclonal antibody; VH SEQ ID NO: 40, VL SEQ ID NO: 42 (antibody, V domains shown)
VH: MNFGFSLIFLVLVSKGVQCEVKLVESGGGLVKPGGSLKFSCAASGFTFSSYAVSWVRQTPEKRLEWVASITSGGRSYYPDSVKGRFTISRDNARSMLYLHMSSLRSEDTAMYYCTRGWDENDLWGQGTTLTVSS
VL: MKLPVRLLVLMFWIPASSSDVVMTQTPLSLFVSLGDQASISCRSSQSLLYSNGNTYLHWYLQRPGQSPQLLIYKVSNRFSGVPDRFSGSGSGTDFTLKISRVEAEDLGVYFCSQTTHVPWTFGGGTKLEIK
modifications: R29-8-58C heavy chain variable region; R29-8-58C light chain variable region
B3: R29-8-75B: murine anti-C16orf54 monoclonal antibody; VH SEQ ID NO: 56, VL SEQ ID NO: 58 (antibody, V domains shown)
VH: MDSRLNLVFLVLILKGVQCDVQLVESGGGLVQPGGSRKLSCAASGFTFSRFGMHWVRQAPEKGLEWVAYISSGSSTIYYADTVKGRFTISRDNPKNTLFLQMTSLRSEDTAMYYCARVDYDVALAYWGQGTLVTVSA
VL: MKLPVRLLVLMFWIPASSSGVLMTQTPLSLPVSLGDQASISCRSSQSIVHRNGNTYLEWYLQKPGQSPKLLIYKVSNRFSGVPDRFSGSGSGTDFTLKISRVEAEDLGVYYCFQGSQWTFGGGTKLEIK
modifications: R29-8-75B heavy chain variable region; R29-8-75B light chain variable region

Assays:
[1] = target: T1, huC16orf54 (cells expressing C16orf54); assay: Competition ELISA to establish relative binding properties; conditions: hybridoma supernatant; 2 hours with competing mixture of antibodies of a different isotype
Procedure: Another competition ELISA was performed to establish relative binding properties. Individual anti-huC16orf54 isotyped (e.g., IgG2a) antibody containing hybridoma supernatants were allowed to bind to huC16orf54 in individual wells of an ELISA plate containing cells expressing C16orf54. After 30 min, the wells were washed. Then individual wells of the ELISA plate were incubated for 2 hours with either buffer or a competing mixture of anti-huC16orf54 isotyped antibodies (of a different isotype, e.g., IgG1 and IgG2b in the case of an IgG2a antibody). After washing, the wells were incubated with a specific secondary antibody (for example, Jackson Immunologicals Goat×IgG2a HRP—Product#115-035-206) and detected with SuperSignal® ELISA Pico Chemiluminescent substrate (Thermo Scientific—Product#37069). For each anti-huC16orf54 isotyped (e.g., IgG2a) antibody containing hybridoma supernatant, relative binding properties were calculated as follows: [(Average luminescence in wells incubated with buffer)−(Average luminescence in wells incubated with mixture of anti-huC16orf54 isotyped antibodies of a different isotype)]/[(Average luminescence in wells incubated with buffer)].

[2] = target: T2, N-terminal 32 amino acids of huC16orf54; assay: Off-rate screen of hybridoma supernatants on OctetQK384 (biolayer interferometry); assay type: binding; conditions: calculated off-rate
Procedure: Eight anti-huC16orf54 monoclonal antibodies were further screened for binding and subsequent off-rate analysis using the OctetQK384® sytem (ForteBio). Hybridoma supernatants were screened for association to and dissocation from streptavidin sensors coated with the N-terminal 32 amino acids of huC16orf54 coupled to biotin, and the calculated offrates (kdis) are shown in Table 31. Cloned hybridomas with […] off-rates were carried forward for antibody purification.

[3] = target: T2, N-terminal 32 amino acids of huC16orf54; assay: Affinity measurements of purified antibodies on OctetQK384; assay type: binding; conditions: purified antibody, streptavidin sensors coated with N-terminal 32 amino acids of huC16orf54 coupled to biotin
Procedure: Affinity measurements of purified anti-huC16orf54 antibodies were carried out on the OctetQK384® sytem (ForteBio). After coating streptavidin sensors with the N-terminal 32 amino acids of huC16orf54 coupled to biotin at the C-terminus, association and dissociation of purified anti-huC16orf54 antibodies was monitored. KD values were derived using ForteBio's software.

human C16orf54 = target: T3, human C16orf54; assay: Flow cytometry reactivity with sarcoma cells expressing human C16orf54 (fold change over isotype); assay type: binding
Procedure: (§1) Anti-C16orf54 antibodies which bound to human C16orf54 were tested for their reactivity with human C16orf54 and their crossreactivity with C16orf54 from cynomolgous monkeys (cyno C16orf54) using flow cytometry. Sarcoma cells transfected with and expressing human C16orf54 or cyno C16orf54 were washed with PBS with 0.1% BSA, incubated with FcX receptor blocking solution (BioLegend) for 15 minutes, incubated with 10 μg/ml of anti-C16orf54 antibody for 1 hour at 4° C., washed twice with PBS with 0.1% BSA, incubated with 20 μg/ml of R-Phycoerythrin-AffiniPure F(ab′)2 Fragment Goat Anti-Mouse IgG, Fcγ Fragment Specific (Jackson ImmunoResearch) for 30 minutes at 4° C., washed twice with PBS with 0.1% BSA, incubated with the viability dye TO-PRO-3 iodide (Life Technologies), and immediately analyzed on a MACSQuant Analyzer instrument (Miltenyi). For each cell line and anti-C16orf54 antibody, a fold change was derived by dividing the median fluorescence intensity for Phycoerythrin in the live cell population for the anti-C16orf54 antibody by the median fluorescence intensity for Phycoerythrin in the live cell population for the IgG isotype control antibody.

[4] = target: T4, human C16orf54 extracellular domain peptides; assay: C16orf54 peptide ELISA, human extracellular domain peptides; assay type: binding; conditions: peptide ELISA, 10 μg/ml antibody
Procedure: (§2) Anti-C16orf54 antibodies which bind to human C16orf54, including antibodies that are crossreactive with cyno C16orf54, were tested for their binding to various peptides derived from C16orf54 in a peptide ELISA. A 384-well high binding black microplate (Greiner) was incubated with 2 μg/ml of protein (human, cyno, or mouse extracellular domain peptides) for 16 hours, incubated for 1 hr with a blocking buffer (PBS with 5% Fetal Bovine Serum), washed four times with TBS with Tween, incubated for 1 hour with 10 μg/ml of anti-C16orf54 antibody, washed four times with TBS with Tween, incubated for 1 hour with 10 μg/ml of Peroxidase-AffiniPure Goat Anti-Mouse IgG, Fcγ Fragment Specific (Jackson ImmunoResearch), washed four times with TBS with Tween, and peroxidase was detected with a luminometer (Molecular Devices) upon addition of SuperSignal® ELISA Pico Chemiluminescent Substrate (Thermo Scientific). The luminescence signal was determined.

[5] = system: human C16orf54 extracellular domain peptides; assay: as above; assay type: binding; conditions: human, cyno, or mouse extracellular domain peptides, not told apart; 10 μg/ml antibody
Procedure: as §2

[6] = system: KG-1 (acute myeloid leukemia) xenograft; assay type: in vivo, NOD-SCID mice
Procedure: Subcutaneous tumors are generated by injection of 1×10^7 cancer cells in a mixture of PBS (without magnesium or calcium) and BD Matrigel™ (BD Biosciences) at a 1:1 ratio in the right flank of female SCID or nu^−/− mice. The injected total volume per mouse is […] with 50% being Matrigel (BD Biosciences). Mice are randomized once tumors reach a size between 65-200 mm^3. Antibodies are administered weekly, and body weights and tumors are measured once and twice weekly, respectively. Tumor volume is calculated as described (van der Horst et al. (2009) Neoplasia 11: 355-364). As a negative control, mice are injected with either purified mouse IgG or PBS; or a purified monoclonal antibody that recognizes an antigen other than C16orf54.
Anti-C16orf54 antibodies were tested for their anti-tumor activity in an animal-tumor model. For these studies, the cell line KG-1 (acute myeloid leukemia) was obtained from ATCC and cultured according to the suppliers' protocols. Animals were obtained from Taconic (Hudson, N.Y.). Studies were conducted with anti-C16orf54 antibodies and antibody-drug conjugates (ADCs) of these antibodies.
In these experiments, 4-6 week-old immunodeficient NOD-SCID female mice were used for the KG-1 tumor model. Mice were subcutaneously injected on the right flank with 6×10^6 viable cells (KG-1) in a mixture of PBS (without magnesium or calcium) and BD Matrigel™ (BD Biosciences). Once the tumor reached a size between 65-200 mm^3 mice were randomized. Anti-C16orf54 antibodies were administered weekly, and bodyweights and tumors were measured once and twice weekly, respectively. Tumor volume was calculated as described (van der Horst et al., supra). Experiments were performed on groups of at least eight animals per experimental point.
Statistical significance between treatment and control groups was calculated using the Graphpad Prism® software package and applying Student's two-tailed t-test. A p-value of less than 0.05 was considered significant.

C16orf54 ECD peptides = assay: Peptide crossblocking (Table 36); assay type: binding
cyno C16orf54 = assay: Flow cytometry cross-reactivity with sarcoma cells expressing cyno C16orf54 (fold change over isotype); assay type: binding, cynomolgous monkeys; conditions: 10 μg/ml antibody
Procedure: as §1

[7] = system: cyno C16orf54 extracellular domain peptides; assay: C16orf54 peptide ELISA, cyno extracellular domain peptides; assay type: binding; conditions: 10 μg/ml antibody
Procedure: as §2

[8] = target: T5, extracellular domain of c16orf54 (amino acids 1-31) fused to human IgG1 Fc; assay: C16orf54 peptide-Fc fusion protein ELISA; assay type: binding; conditions: serial dilution of antibody; HRP-conjugated anti mouse secondary
Procedure: Anti-C16orf54 antibodies which bind to human C16orf54, including antibodies that are crossreactive with cyno C16orf54, were tested for their binding to various peptides derived from C16orf54 that were fused to human IgG (e.g., IgG1) constant regions to generate various peptide-Fc fusion proteins in an Fc-based ELISA. An exemplary Fc sequence comprises an IgG1 Hinge region sequence and IgG1 CH3 and […] domain sequences.
The fusion proteins were transiently expressed in 293 T cells. Protein was purified from the 293 expression supernatants by Protein A-based affinity purification. Exemplary C16 peptide-Fc fusion constructs that were made and purified are shown with their protein yield in Table 38. ELISA assays were performed by coating 384 well plates with the fusion proteins overnight at 4C. Antibodies were analyzed by serial dilution with concentrations ranging from 40 ug/mL to […]. Binding was detected with an HRP-conjugated anti mouse secondary antibody.

Sequence of cyno C16orf54 extracellular domain peptides (as listed by the source): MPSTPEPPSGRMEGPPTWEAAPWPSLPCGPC
Sequence of cyno C16orf54 (as listed by the source): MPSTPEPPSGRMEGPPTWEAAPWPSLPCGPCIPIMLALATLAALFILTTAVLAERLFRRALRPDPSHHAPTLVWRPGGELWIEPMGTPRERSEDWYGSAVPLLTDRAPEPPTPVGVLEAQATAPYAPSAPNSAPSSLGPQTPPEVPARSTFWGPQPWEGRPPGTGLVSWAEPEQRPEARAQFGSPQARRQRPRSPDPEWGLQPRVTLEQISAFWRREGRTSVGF

| Molecule | relative binding properties: signal loss upon incubation with competition mixture [1] | kdis [2] [s⁻¹] | kdis [3] [s⁻¹] | kon [3] [M⁻¹ s⁻¹] | binding to C16orf54-expressing cells (dual binders) (human C16orf54) | binding to human C16orf54 (flow cytometry) (human C16orf54; sarcoma cells expressing human C16orf54, 10 μg/ml antibody) | Human ECD & ECD fragments bound by antibody [4] | binding to peptides derived from the extracellular domain of C16orf54 (peptide ELISA) [5] | tumor growth inhibition (in words) ([6]; KG-1 xenograft, compared to control IgG, antibodies weekly) | TGI (tumor growth inhibition) ([6]; Table 42, KG-1 AML model, NOD-SCID mice, weekly administration) [%] | Mean (tumor volume) ([6]; Table 42, KG-1 AML model, NOD-SCID mice, weekly administration, in mm³ (unit assumed)) | Peptide crossblocking (C16orf54 ECD peptides) | Median fold change relative to IgG control in F279-cyno-C16orf54 cells (cyno C16orf54) | Cyno ECD bound by antibody [7] | binding to peptide-Fc fusion proteins (Fc-based ELISA) [8] |
| --- | --- | --- | --- | --- | --- | --- | --- | --- | --- | --- | --- | --- | --- | --- | --- |
| B1 | little signal loss upon incubation with the competition mixture | 0.00707 | 4.12e-05 ± 9.7e-06 | 31900 ± 4600 | bind to C16orf54-expressing cells | bind human C16orf54 | aa1-31, aa1-15, aa9-24 | bind to the various peptides derived from the extracellular domain (ECD) of C16orf54 | did not induce any statistically significant tumor growth inhibition | −17 | 2572.5 | aa1-31 |  |  |  |
| B2 |  |  |  |  |  |  |  |  |  |  |  |  | 1.4 |  |  |
| B3 |  |  |  |  | bind to C16orf54-expressing cells |  | aa1-31, aa1-15, aa9-24 | bind to the various peptides derived from the extracellular domain (ECD) of C16orf54 |  |  |  | aa1-31, aa9-24 |  | aa1-31 | able to bind to the peptide-Fc fusion proteins |
